Positions count from the first letter of the chain named.
B1: anti-DLL3 trispecific protein, DLL3 binder 3F06 (protein, part only; not given: anti-CD3 fragment and anti-albumin sdAb, part only)
chain, part: EVQLVESGGGLVQPGGSLTLSCAASGSRVSFLSMAWYRQAPGKKRELVAGISADGSTSYIDSVKGRFTISRDNAKNSVYLQMNSLRAEDTAVYYCYAYRWATRYTYWGQGTLVTVSSGGGGSGGGSGGGGSGGGSHHHHHH
B2: anti-DLL3 trispecific protein, DLL3 binder 3D03 (protein, part only; not given: anti-CD3 fragment and anti-albumin sdAb, part only)
chain, part: B1 chain, part with R28S, S30V, T57M, S58D, A101R
B3: anti-DLL3 trispecific protein, DLL3 binder 4A01 (protein, part only; not given: CD3 binder and albumin binder, part only)
chain, part: B1 chain, part with R28S, S30R, A53Q, S58D, A101R
B4: anti-DLL3 trispecific protein, DLL3 binder 4E07 (protein, part only; not given: CD3 binder and albumin binder, part only)
chain, part: B1 chain, part with S58M, A101T, Y104L
B5: anti-DLL3 trispecific protein, DLL3 binder 4E06 (protein, part only; not given: anti-CD3 fragment and anti-albumin domain, part only)
chain, part: B1 chain, part with S27T, R28S, S58D, D61R, A101T, Y104L
B6: anti-DLL3 trispecific protein, DLL3 binder 3C06 (protein, part only; not given: CD3 binder and albumin binder, part only)
chain, part: B1 chain, part with S27T, R28S, M34I, S58D, D61A, A101R
B7: anti-DLL3 trispecific protein, DLL3 binder 4B01 (protein, part only; not given: anti-CD3 and anti-albumin domains, part only)
chain, part: B1 chain, part with R28S, S30K, A53R, S58D, A101T, Y104F
B8: anti-DLL3 trispecific protein, DLL3 binder 4B08 (protein, part only; not given: CD3 fragment and albumin sdAb, part only)
chain, part: B1 chain, part with R28S, L32M, S58D, D61A, A101T, Y104S
B9: anti-DLL3 trispecific protein, DLL3 binder 3D01 (protein, part only; not given: CD3 binder and albumin binder, part only)
chain, part: B1 chain, part with R28S, A53R, S58D, A101I
B10: anti-DLL3 trispecific protein, DLL3 binder 3B01 (protein, part only; not given: anti-CD3 fragment and anti-albumin sdAb, part only)
chain, part: B1 chain, part with R28S, A53G, S58D, A101T
B11: anti-DLL3 trispecific protein, DLL3 binder 4E01 (protein, part only; not given: anti-CD3 fragment and anti-albumin sdAb, part only)
chain, part: B1 chain, part with R28S, M34V, A53R, S58D, A101R
B12: anti-DLL3 trispecific protein, DLL3 binder 3E011 (protein, part only; not given: CD3 binder and albumin binder, part only)
chain, part: B1 chain, part with R28K, A53R, S58D, A101T, Y106F
B13: anti-DLL3 trispecific protein, DLL3 binder 3E09 (protein, part only; not given: CD3 binder and albumin binder, part only)
chain, part: B1 chain, part with R28S, S30R, A53R, S58D, A101S
B14: anti-DLL3 trispecific protein, DLL3 binder 3E04 (protein, part only; not given: CD3 fragment and albumin sdAb, part only)
chain, part: B1 chain, part with R28S, S30H, A53R, S58D, A101T, T105R
B15: anti-DLL3 trispecific protein, DLL3 binder 1D08 (protein, part only; not given: CD3 binder and albumin binder, part only)
chain, part: EVQLVESGGGLVQPGGSLTLSCVASGLTSSINAMGWYRRAPGKQRELVAGISSDGSKVYADSVKGRFTISRDNAKNSVYLQMNSLRAEDTAVYYCYYFRMVSGSSMRYWGQGTLVTVSSGGGGSGGGSGGGGSGGGSHHHHHH
B16: anti-DLL3 trispecific protein, DLL3 binder 1F04 (protein, part only; not given: anti-CD3 and anti-albumin domains, part only)
chain, part: B15 chain, part with L27G, A60S, M100T, M106A
B17: anti-DLL3 trispecific protein, DLL3 binder 1B04 (protein, part only; not given: CD3 fragment and albumin sdAb, part only)
chain, part: B15 chain, part with L27T, K57L, M100I, S102R
B18: anti-DLL3 trispecific protein, DLL3 binder 2G04 (protein, part only; not given: anti-CD3 fragment and anti-albumin sdAb, part only)
chain, part: B15 chain, part with L27S, K57L, M100I, V101L
B19: anti-DLL3 trispecific protein, DLL3 binder 2A09 (protein, part only; not given: anti-CD3 and anti-albumin domains, part only)
chain, part: B15 chain, part with L27S, I31R, D54N, A60S, M100T, R107S
B20: anti-DLL3 trispecific protein, DLL3 binder 1B02 (protein, part only; not given: anti-CD3 fragment and anti-albumin sdAb, part only)
chain, part: B15 chain, part with L27S, V58I, M100T
B21: anti-DLL3 trispecific protein, DLL3 binder 1G04 (protein, part only; not given: anti-CD3 fragment and anti-albumin sdAb, part only)
chain, part: B15 chain, part with L27S, I31T, Y59L, M100T, S102N, G103L
B22: anti-DLL3 trispecific protein, DLL3 binder 1G09 (protein, part only; not given: anti-CD3 fragment and anti-albumin domain, part only)
chain, part: B15 chain, part with L27S, M100T, G103K
B23: anti-DLL3 trispecific protein, DLL3 binder 2F06 (protein, part only; not given: CD3 fragment and albumin sdAb, part only)
chain, part: B15 chain, part with L27S, M34Y, K57A, M100T, V101H
B24: anti-DLL3 trispecific protein, DLL3 binder 2B01 (protein, part only; not given: CD3 fragment and albumin sdAb, part only)
chain, part: B15 chain, part with L27S, S30L, M100H
B25: anti-DLL3 trispecific protein, DLL3 binder 1H02 (protein, part only; not given: anti-CD3 fragment and anti-albumin domain, part only)
chain, part: B15 chain, part with L27S, T28K, V48A, D61Q, M100T, V101S
B26: anti-DLL3 trispecific protein, DLL3 binder 2B010 (protein, part only; not given: CD3 fragment and albumin sdAb, part only)
chain, part: B15 chain, part with L27S, I31R, V58L, A60L, M100T, S102L
B27: anti-DLL3 trispecific protein, DLL3 binder 2E06 (protein, part only; not given: CD3 binder and albumin binder, part only)
chain, part: B15 chain, part with L27S, D61S, M100T, S102R

What follows are binders tested against biotinylated human DLL3 protein expressed as a human IgG1 fusion protein (human) (UniProt Q9NYJ7) (assay: Octet, biotinylated human DLL3-IgG1 fusion on streptavidin tips, single 50 nM, conditioned medium (relative KD)).
Sequence of biotinylated human DLL3 protein expressed as a human IgG1 fusion protein (human) (Q9NYJ7 27-492): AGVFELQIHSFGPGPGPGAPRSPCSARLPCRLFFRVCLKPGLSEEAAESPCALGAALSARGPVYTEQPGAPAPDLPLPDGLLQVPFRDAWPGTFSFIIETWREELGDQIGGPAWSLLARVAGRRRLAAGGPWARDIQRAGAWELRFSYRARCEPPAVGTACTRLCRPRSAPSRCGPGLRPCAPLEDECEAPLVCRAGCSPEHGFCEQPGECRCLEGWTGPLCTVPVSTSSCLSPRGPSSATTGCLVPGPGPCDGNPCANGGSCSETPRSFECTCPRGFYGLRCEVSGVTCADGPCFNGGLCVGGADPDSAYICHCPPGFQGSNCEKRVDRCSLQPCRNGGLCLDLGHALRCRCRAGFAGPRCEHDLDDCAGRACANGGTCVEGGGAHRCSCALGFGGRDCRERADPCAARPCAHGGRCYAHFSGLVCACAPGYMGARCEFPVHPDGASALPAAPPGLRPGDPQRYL
Binder B1 has a Kd of 9.9 nM. B2 gave a Kd of 11 nM. With B3 the Kd was 10 nM. B4 showed a Kd of 11 nM. In the case of B5, the Kd is reported as 10 nM. B6 showed a Kd of 10 nM. For B7, the Kd was 11 nM. Work on B8 yielded a Kd of 10 nM. B9 gave a Kd of 10 nM. B10 gave a Kd of 10 nM. Binder B11 has a Kd of 11 nM. B12 showed a Kd of 11 nM. B13 was tested, and the Kd was 10 nM. Work on B14 yielded a Kd of 11 nM. With B15 the Kd was 10 nM. In the case of B16, the Kd is reported as 10 nM. B17 showed a Kd of 11 nM. B18 was tested, and the Kd was 11 nM. With B19 the Kd was 10 nM. For B20, the Kd was 11 nM. Binder B21 has a Kd of 11 nM. In the case of B22, the Kd is reported as 10 nM. For B23, the Kd was 10 nM. For B24, the Kd was 10 nM. With B25 the Kd was 10 nM. In the case of B26, the Kd is reported as 10 nM. Work on B27 yielded a Kd of 11 nM.

Reference: patent US20200095340A1
